System: Escherichia coli TOP10
Experiment: shrunken log2 fold change of peptide-encoding DNA abundance (4.5 h post-induction vs induction); higher = less antimicrobial activity (less host growth inhibition)
Conditions: time post-induction: 4.5 h; library: site-saturation at positions 5, 18, 19, 20
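Note: peptides expressed intracellularly from a pBAD plasmid library in pooled LB shake-flask culture, induced with 0.3% L-arabinose, DNA abundance read by NGS, three biological replicates, DESeq2 with apeglm shrinkage.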

Sequence	shrunken log2 fold change
RRIRMRPPRLPRPRPRPVMWPRP	0.624
RRIRERPPRLPRPRPRPEQCPRP	-0.0274
RRIRKRPPRLPRPRPRPHIHPRP	-0.239
RRIRNRPPRLPRPRPRPGWQPRP	0.116
RRIRFRPPRLPRPRPRPPIKPRP	0.0125
RRIRHRPPRLPRPRPRPFSMPRP	-0.0138
RRIRNRPPRLPRPRPRPDYRPRP	-0.668
RRIRWRPPRLPRPRPRPNWIPRP	0.149
RRIRHRPPRLPRPRPRPIHHPRP	-0.216
RRIRRRPPRLPRPRPRPKQLPRP	0.148
RRIRMRPPRLPRPRPRPEAPPRP	3.4
RRIRMRPPRLPRPRPRPPYDPRP	0.0745
RRIRMRPPRLPRPRPRPDCYPRP	-0.15
RRIRPRPPRLPRPRPRPHWPPRP	0.0791
RRIRMRPPRLPRPRPRPKESPRP	0.939
RRIRWRPPRLPRPRPRPVTCPRP	-0.00133
RRIRMRPPRLPRPRPRPPYKPRP	-0.163
RRIRNRPPRLPRPRPRPMVGPRP	-0.0679
RRIRNRPPRLPRPRPRPYWEPRP	-0.293
RRIRRRPPRLPRPRPRPHKQPRP	-0.00379
RRIRRRPPRLPRPRPRPEKRPRP	0.296
RRIRGRPPRLPRPRPRPYNKPRP	-0.593
RRIRMRPPRLPRPRPRPVHLPRP	-0.0129
RRIRSRPPRLPRPRPRPRSNPRP	-0.186
RRIRQRPPRLPRPRPRPHIAPRP	-0.142

Sequence	shrunken log2 fold change
RRIRIRPPRLPRPRPRPAYAPRP	-0.197
RRIRDRPPRLPRPRPRPKEPPRP	0.00859
RRIRKRPPRLPRPRPRPQTFPRP	0.117
RRIRKRPPRLPRPRPRPSVAPRP	0.394
RRIRERPPRLPRPRPRPHIKPRP	-0.932
RRIRDRPPRLPRPRPRPWMHPRP	0.00346
RRIRWRPPRLPRPRPRPYPSPRP	-0.0856
RRIRFRPPRLPRPRPRPCLGPRP	-0.201
RRIRVRPPRLPRPRPRPEWTPRP	0.171
RRIRHRPPRLPRPRPRPNKDPRP	-0.507
RRIRMRPPRLPRPRPRPTSLPRP	0.546
RRIRFRPPRLPRPRPRPPHEPRP	-0.064
RRIRCRPPRLPRPRPRPRNMPRP	0.0316
RRIRGRPPRLPRPRPRPFPHPRP	0.155
RRIRHRPPRLPRPRPRPYHMPRP	-0.0151
RRIRVRPPRLPRPRPRPWYAPRP	-0.299
RRIRYRPPRLPRPRPRPGRTPRP	-0.121
RRIRERPPRLPRPRPRPFQAPRP	-0.215
RRIRRRPPRLPRPRPRPKTYPRP	-0.239
RRIRGRPPRLPRPRPRPHEQPRP	0.0117
RRIRSRPPRLPRPRPRPQYCPRP	-0.0172
RRIRRRPPRLPRPRPRPTYQPRP	0.112
RRIRARPPRLPRPRPRPASQPRP	0.445
RRIRYRPPRLPRPRPRPKVMPRP	-0.296
RRIRYRPPRLPRPRPRPNPRPRP	-0.123

Sequence	shrunken log2 fold change
RRIRPRPPRLPRPRPRPDCQPRP	-0.0657
RRIRWRPPRLPRPRPRPGNTPRP	-0.348
RRIRLRPPRLPRPRPRPKANPRP	0.0584
RRIRLRPPRLPRPRPRPSQTPRP	-0.217
RRIRSRPPRLPRPRPRPFYRPRP	-0.271
RRIRCRPPRLPRPRPRPFWCPRP	-0.397
RRIRDRPPRLPRPRPRPGIPPRP	0.016
RRIRWRPPRLPRPRPRPGEWPRP	0.162
RRIRRRPPRLPRPRPRPTFMPRP	0.284
RRIRERPPRLPRPRPRPKFFPRP	-0.0207
RRIRGRPPRLPRPRPRPDPEPRP	0.593
RRIRQRPPRLPRPRPRPLRSPRP	0.208
RRIRIRPPRLPRPRPRPYTKPRP	-0.203
RRIRSRPPRLPRPRPRPYKWPRP	-0.18
RRIRKRPPRLPRPRPRPKMTPRP	0.187
RRIRPRPPRLPRPRPRPYKIPRP	-0.227
RRIRGRPPRLPRPRPRPWRQPRP	0.0568
RRIRTRPPRLPRPRPRPEVQPRP	0.0183
RRIRARPPRLPRPRPRPMCQPRP	0.13
RRIRNRPPRLPRPRPRPRCQPRP	0.297
RRIRGRPPRLPRPRPRPNEPPRP	0.154
RRIRVRPPRLPRPRPRPNKKPRP	-0.0801
RRIRNRPPRLPRPRPRPRVGPRP	0.0576
RRIRGRPPRLPRPRPRPKIGPRP	0.752
RRIRNRPPRLPRPRPRPKTDPRP	-0.206

Sequence	shrunken log2 fold change
RRIRGRPPRLPRPRPRPRKCPRP	0.666
RRIRYRPPRLPRPRPRPHRKPRP	-0.501
RRIRKRPPRLPRPRPRPRTHPRP	0.425
RRIRWRPPRLPRPRPRPWTSPRP	-0.0584
RRIRTRPPRLPRPRPRPYNHPRP	-0.138
RRIRSRPPRLPRPRPRPTLIPRP	-0.0693
RRIRDRPPRLPRPRPRPRYLPRP	-0.171
RRIRSRPPRLPRPRPRPNRNPRP	-0.163
RRIRWRPPRLPRPRPRPPHHPRP	0.214
RRIRMRPPRLPRPRPRPDAHPRP	0.0846
RRIRMRPPRLPRPRPRPKGAPRP	1.76
RRIRHRPPRLPRPRPRPYMHPRP	-0.448
RRIRSRPPRLPRPRPRPTPNPRP	0.306
RRIRYRPPRLPRPRPRPHPTPRP	-0.289
RRIRSRPPRLPRPRPRPLQKPRP	0.0179
RRIRIRPPRLPRPRPRPDTDPRP	-0.194
RRIRQRPPRLPRPRPRPMMLPRP	0.052
RRIRDRPPRLPRPRPRPFACPRP	0.107
RRIRARPPRLPRPRPRPQVPPRP	0.117
RRIRKRPPRLPRPRPRPWCTPRP	-0.0115
RRIRWRPPRLPRPRPRPNPTPRP	-0.0571
RRIRCRPPRLPRPRPRPWWEPRP	-0.368
RRIRRRPPRLPRPRPRPTTHPRP	0.306
RRIRTRPPRLPRPRPRPMDTPRP	0.0257
RRIRCRPPRLPRPRPRPEQHPRP	0.0913

Sequence	shrunken log2 fold change
RRIRKRPPRLPRPRPRPTRVPRP	0.53
RRIRPRPPRLPRPRPRPGGWPRP	0.724
RRIRCRPPRLPRPRPRPQYLPRP	-0.964
RRIRVRPPRLPRPRPRPRDFPRP	0.0486
RRIRGRPPRLPRPRPRPWEIPRP	0.361
RRIRDRPPRLPRPRPRPYYYPRP	-1.11
RRIRHRPPRLPRPRPRPQAQPRP	-0.208
RRIRARPPRLPRPRPRPSLFPRP	0.349
RRIRKRPPRLPRPRPRPWSDPRP	-0.0989
RRIRFRPPRLPRPRPRPFHTPRP	-0.561
RRIRRRPPRLPRPRPRPYLLPRP	-0.263
RRIRTRPPRLPRPRPRPEFTPRP	0.016
RRIRGRPPRLPRPRPRPWVYPRP	-0.0165
RRIRRRPPRLPRPRPRPIIKPRP	-0.265
RRIRTRPPRLPRPRPRPCEMPRP	0.0671
RRIRARPPRLPRPRPRPGRMPRP	0.237
RRIRWRPPRLPRPRPRPQYGPRP	-0.442
RRIRKRPPRLPRPRPRPFDQPRP	-0.0318
RRIRQRPPRLPRPRPRPDRYPRP	0.0513
RRIRNRPPRLPRPRPRPCECPRP	0.0219
RRIRQRPPRLPRPRPRPPYMPRP	-0.184
RRIRSRPPRLPRPRPRPILMPRP	-0.172
RRIRVRPPRLPRPRPRPKKSPRP	0.585
RRIRGRPPRLPRPRPRPQPSPRP	0.65
RRIRDRPPRLPRPRPRPWELPRP	0.18

Sequence	shrunken log2 fold change
RRIRRRPPRLPRPRPRPWDNPRP	0.0234
RRIRVRPPRLPRPRPRPGYPPRP	-0.343
RRIRYRPPRLPRPRPRPRHDPRP	-0.237
RRIRKRPPRLPRPRPRPDWQPRP	-0.0216
RRIRKRPPRLPRPRPRPEKIPRP	0.185
RRIRNRPPRLPRPRPRPKPGPRP	0.235
RRIRNRPPRLPRPRPRPQDAPRP	-0.131
RRIRPRPPRLPRPRPRPAHRPRP	0.384
RRIRCRPPRLPRPRPRPQLPPRP	-0.104
RRIRWRPPRLPRPRPRPSSYPRP	-0.123
RRIRLRPPRLPRPRPRPEWWPRP	0.124
RRIRARPPRLPRPRPRPSELPRP	0.22
RRIRVRPPRLPRPRPRPNCQPRP	-0.1
RRIRCRPPRLPRPRPRPVHLPRP	0.0885
RRIRMRPPRLPRPRPRPPGVPRP	0.919
RRIRDRPPRLPRPRPRPDEQPRP	0.0528
RRIRQRPPRLPRPRPRPRQAPRP	0.0647
RRIRDRPPRLPRPRPRPFQGPRP	-0.181
RRIRRRPPRLPRPRPRPSIFPRP	-0.192
RRIRQRPPRLPRPRPRPGEYPRP	-0.0469
RRIRERPPRLPRPRPRPNSSPRP	-0.494
RRIRYRPPRLPRPRPRPGCEPRP	0.0164
RRIRRRPPRLPRPRPRPEVDPRP	0.0409
RRIRGRPPRLPRPRPRPISHPRP	-0.0449
RRIRDRPPRLPRPRPRPSKDPRP	-0.242
